According to patent US20140193915, “COMPOSITIONS AND METHODS FOR CUSTOM SITE-SPECIFIC DNA RECOMBINASES” (Monsanto Technology, LLC, published 2014):
Changes are numbered by the printed parent chain.

T1: sN-TALER IV-1 (GinH106Y-TALE13) (synthetic)
T1 chain: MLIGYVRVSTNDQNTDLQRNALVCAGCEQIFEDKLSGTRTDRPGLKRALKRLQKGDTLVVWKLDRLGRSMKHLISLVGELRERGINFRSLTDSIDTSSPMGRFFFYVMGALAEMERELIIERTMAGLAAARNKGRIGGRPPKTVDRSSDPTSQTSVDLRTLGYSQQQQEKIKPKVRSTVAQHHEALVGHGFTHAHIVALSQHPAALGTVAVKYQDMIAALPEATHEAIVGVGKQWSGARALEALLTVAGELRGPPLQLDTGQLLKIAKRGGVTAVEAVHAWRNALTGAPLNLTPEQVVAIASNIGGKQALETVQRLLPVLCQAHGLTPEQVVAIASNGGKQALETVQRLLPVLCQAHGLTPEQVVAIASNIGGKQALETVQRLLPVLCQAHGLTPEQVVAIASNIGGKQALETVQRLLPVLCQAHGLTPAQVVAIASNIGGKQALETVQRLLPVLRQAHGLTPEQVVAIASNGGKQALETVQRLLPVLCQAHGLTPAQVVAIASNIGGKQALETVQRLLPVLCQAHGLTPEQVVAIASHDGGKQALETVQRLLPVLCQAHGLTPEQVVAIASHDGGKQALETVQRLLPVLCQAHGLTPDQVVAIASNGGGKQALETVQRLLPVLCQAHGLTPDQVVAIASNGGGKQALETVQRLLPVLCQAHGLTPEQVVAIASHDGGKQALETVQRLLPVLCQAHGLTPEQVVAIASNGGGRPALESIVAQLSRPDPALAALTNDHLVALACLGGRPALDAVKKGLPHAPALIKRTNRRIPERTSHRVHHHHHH

T2: pN-TALER IV-1-EE2 (GinL7C7-EE2-TALE13) (synthetic)
T2 chain: T1 chain with V6A, D12G, N14S, N20D, K50E, M70V, I94V, Y106H, M108T, M114V

T3: sN-TALER IV-2 (GinH106Y-TALE13) (synthetic)
T3 chain: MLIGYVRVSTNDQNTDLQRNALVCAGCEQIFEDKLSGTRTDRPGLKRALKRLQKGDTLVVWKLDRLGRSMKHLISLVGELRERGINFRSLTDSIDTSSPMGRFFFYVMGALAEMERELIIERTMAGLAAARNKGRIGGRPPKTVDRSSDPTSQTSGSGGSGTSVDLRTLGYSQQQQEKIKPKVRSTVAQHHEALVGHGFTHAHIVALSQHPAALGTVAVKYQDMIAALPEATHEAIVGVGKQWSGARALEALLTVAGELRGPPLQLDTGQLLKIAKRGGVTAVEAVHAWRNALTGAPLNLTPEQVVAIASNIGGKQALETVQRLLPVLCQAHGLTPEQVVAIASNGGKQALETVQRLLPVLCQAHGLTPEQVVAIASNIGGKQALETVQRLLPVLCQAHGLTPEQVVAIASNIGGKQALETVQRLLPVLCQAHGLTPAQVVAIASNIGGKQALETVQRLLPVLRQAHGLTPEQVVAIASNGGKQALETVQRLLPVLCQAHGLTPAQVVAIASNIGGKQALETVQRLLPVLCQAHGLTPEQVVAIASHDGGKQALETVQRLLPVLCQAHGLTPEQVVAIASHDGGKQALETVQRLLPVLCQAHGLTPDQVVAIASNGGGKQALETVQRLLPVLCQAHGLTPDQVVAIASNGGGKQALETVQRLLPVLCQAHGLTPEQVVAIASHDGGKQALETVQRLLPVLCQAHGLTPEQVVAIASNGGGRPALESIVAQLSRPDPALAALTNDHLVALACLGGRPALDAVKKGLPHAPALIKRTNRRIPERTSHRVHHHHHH

T4: sN-TALER IV-3 (synthetic)
T4 chain: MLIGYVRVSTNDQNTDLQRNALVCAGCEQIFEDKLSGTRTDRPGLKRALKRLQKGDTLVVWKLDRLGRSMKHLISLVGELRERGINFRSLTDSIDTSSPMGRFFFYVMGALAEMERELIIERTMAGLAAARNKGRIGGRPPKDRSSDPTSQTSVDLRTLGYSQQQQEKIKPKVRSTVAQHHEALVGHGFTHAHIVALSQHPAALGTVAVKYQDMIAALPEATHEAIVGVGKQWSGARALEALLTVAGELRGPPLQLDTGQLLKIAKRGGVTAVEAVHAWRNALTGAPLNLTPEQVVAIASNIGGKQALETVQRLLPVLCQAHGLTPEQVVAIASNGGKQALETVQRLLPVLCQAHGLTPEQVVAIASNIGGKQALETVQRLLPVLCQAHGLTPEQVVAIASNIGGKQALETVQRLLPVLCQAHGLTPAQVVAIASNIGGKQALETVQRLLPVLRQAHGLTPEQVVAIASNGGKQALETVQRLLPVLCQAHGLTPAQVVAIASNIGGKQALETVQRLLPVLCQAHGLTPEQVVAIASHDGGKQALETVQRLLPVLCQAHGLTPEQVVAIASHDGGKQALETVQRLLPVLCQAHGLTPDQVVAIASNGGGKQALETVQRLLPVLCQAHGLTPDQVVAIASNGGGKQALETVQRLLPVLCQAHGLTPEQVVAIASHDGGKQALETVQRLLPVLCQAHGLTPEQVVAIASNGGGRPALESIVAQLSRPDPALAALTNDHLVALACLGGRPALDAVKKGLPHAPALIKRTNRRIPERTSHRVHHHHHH

B1: R45 (12bp) (dsDNA)
DNA 1: AGAAGGTATTTATATCTCAAACCATGGTTTCACTTATAAATACCTTCT
DNA 2: B1 DNA 1 with T15A, C16G, C18G, C31G, C33G, T34A
B2: R46 (10bp) (dsDNA)
DNA 1: B1 DNA 1 with A19T, T30A
DNA 2: AGAAGGTATTTATAAGTGTAACCATGGTTAGAGATATAAATACCTTCT
B3: Gin20TALE+12 (dsDNA)
DNA 1: AGAAGGTATTTATATAGGCACACTTATCCAAAACCATGGTTTACAGGACCACACGGTATATAAATACCTTCT
DNA 2: AGAAGGTATTTATATACCGTGTGGTCCTGTAAACCATGGTTTTGGATAAGTGTGCCTATATAAATACCTTCT
B4: R48 (dsDNA)
DNA 1: AGAAGGTATTTATATCCAAAACTATAGTTTACAGTATAAATACCTTCT
DNA 2: AGAAGGTATTTATACTGTAAACTATAGTTTTGGATATAAATACCTTCT

Assays:
Experiment in all cases: cell_activity; E. coli
[1] = target: T1, sN-TALER IV-1 (GinH106Y-TALE13); settings: tags: 6-His; chain copies: 2 per site, tetramer in synapsis (stated)
From the text: (§1) To determine how much of the Gin20 sequence is required for recombination when the central sequence is maintained at a permitted length, N-TALER reporters were generated with a 20 bp recombinase central sequence between the TALE binding sites, where either the central 12 bp, or the central 10 bp, or the central 8 bp of the recombinase core sequence were held constant, and the remaining nucleotides were different from the Gin sequence. The N-TALER reporter with 12 bp was designated R45, the N-TALER reporter with 10 bp was designated R46, and the N-TALER reporter with 8 bp was designated R47. A N-TALER reporter with a 10 bp site 1 and a 12 bp site 2 was designated R46B, and a N-TALER reporter with a T and an A flanking the central AT di-nucleotide was designated R48 (see Table 33). The various reporters, including the pSC101 Gin20TALE13+0 were co-transformed with either sN-TALER-IV-1 or pN-TALER-IV-1 and recombination, as determined by colony color, was scored (Table 33). For purposes of comparison, the GinE site that was used in the generation of the GinL7C7-EE2 recombinase domain (Gersbach et al., 2010) was also included.
(§2) To confirm that white colonies resulted from recombination, the colonies were analyzed by colony PCR and sequencing of the PCR product. For the reporter that retained 12 bp from the Gin site, 8 of 8 colonies analyzed had the predicted recombination product for both the sN-TALER-IV-1 chimera and the pN-TALER-IV-1chimera (16 colonies total analyzed, 8 each). Likewise, for the reporter that retained 8 bp from the Gin site co-transformed with the pN-TALER-IV-1 chimera, 14 of 14 colonies analyzed had the predicted recombination product.

[2] = target: T2, pN-TALER IV-1-EE2 (GinL7C7-EE2-TALE13); settings: tags: 6-His
From the text: as §1, §2

[3] = target: T1, sN-TALER IV-1 (GinH106Y-TALE13); settings: tags: 6-His; chain copies: 2 per site, tetramer in synapsis (stated)
Description: (§3) To test for recombination, E. coli DH5alpha cells were co-transformed with different combinations of TALER expression construct and TALER reporter construct pairs (Tables 6 and 7). The N-TALER expression and reporter constructs were in an approximate 1:1 mass ratio during the transformation. The co-transformed bacteria were plated on media with chloramphenicol, kanamycin, and X-gal then incubated at 37° C. for 18 to 36 hours. Control samples consisted of transformations using the reporter construct alone. Control transformants were similarly plated. The bacterial transformation protocol was either heat shock or electroporation per standard molecular biology techniques.

[4] = target: T3, sN-TALER IV-2 (GinH106Y-TALE13); settings: tags: 6-His
Description: as §3

[5] = target: T4, sN-TALER IV-3; settings: tags: 6-His
Description: as §3

[6] = target: T2, pN-TALER IV-1-EE2 (GinL7C7-EE2-TALE13); settings: tags: 6-His
Description: as §3
Two additional N-TALERs, based on N-TALER IV-1, were constructed wherein the GinH106Y recombinase catalytic domain was replaced with either the GinL7C7-EE2 catalytic domain or the GinL7C7-EE3 permissive recombinase catalytic domain. These N-TALERs were labeled pN-TALER IV-1-EE2 (SEQ ID NO:41) and pN-TALER IV-1-EE3 (SEQ ID NO:45), respectively. pN-TALER IV-1-EE2 was tested in combination with seventeen N-TALER reporter constructs and pN-TALER IV-1-EE3 was tested with three reporter constructs (Table 10).

Binder | activity [1] [score] | activity [2] [score] | activity [3] [score] | activity [4] [score] | activity [5] [score] | activity [6] [score]
B1 | 1.5 | 1 | – | – | – | –
B2 | 4.5 | 1.5 | – | – | – | –
B3 | – | – | 2 | 1 | 1 | 2
B4 | 4.5 | 1.5 | – | – | – | –
